{"source": "patent EP3196312B1", "about": "“EFFICIENT CONVERSION OF METHYLGLYOXAL INTO HYDROXYACETONE USING NOVEL ENZYMES AND APPLI CATIONS THEREOF” (Metabolic Explorer, priority 2016, dated 2017)", "test_in_all_cases": "Methylglyoxal reductase kinetic parameters of purified enzyme (NAD(P)H consumption at 340 nm)", "key": {"[1]": {"substrate": "CC(=O)C=O", "format": "biochemical, Gluconobacter oxydans", "conditions": "other: substrate methylglyoxal 0.1-40 mM, cofactor NADPH, 20mM Hepes (pH7.5), 30°C, pH 7.5", "experimental": "(§1) Except for the strain 18, the proteins were purified from the crude cell-extract by affinity on a Profinity column (BIORAD, Bio-Scale Mini Profinity exact cartridge 5 ml) according to the protocol recommended by the manufacturer. The crude extract was loaded on a 5 ml Profinity exact cartridge equilibrated with 100 mM potassium phosphate pH 7.6. The column was washed with 10 column volumes of the same buffer and incubated 30min with 100 mM potassium phosphate pH 7.6, 100 mM fluoride at room temperature. The protein was eluted from the column with 2 column volumes of 100 mM potassium phosphate pH 7.6. The tag remained tightly bound to the resin and the purified protein was released. The fractions containing the protein were pooled, concentrated and loaded on a gel filtration column (Superdex 200 10/300 GL column, GE Healthcare) equilibrated with different storage buffers (Table 3). Protein concentration was measured using the Bradford protein assay.\n(§2) Methylglyoxal reductase activity (MGR) was determined by measuring the consumption of NAD(P)H at 340 nm on a spectrophotometer at 30°C (λ340 = 6290 M^-1 cm^-1). The reaction mixture (1mL) containing assay buffer and purified enzyme was incubated for 5 min at 30°C. Then, 0.1-40 mM methylglyoxal was added to start the reaction. […] Kinetic parameters were determined with Sigmaplot."}, "[2]": {"substrate": "CC(=O)C=O", "format": "biochemical, Escherichia coli", "conditions": "other: substrate methylglyoxal 0.1-40 mM, pH 7.5", "experimental": "as §1\nMethylglyoxal reductase activity (MGR) was determined by measuring the consumption of NAD(P)H at 340 nm on a spectrophotometer at 30°C (λ340 = 6290 M^-1 cm^-1). The reaction mixture (1mL) containing assay buffer and purified enzyme was incubated for 5 min at 30°C. Then, 0.1-40 mM methylglyoxal was added to start the reaction. One unit of enzyme activity was defined as the amount of enzyme catalyzing the decrease of 1µmol of NAD(P)H per min. Kinetic parameters were determined with Sigmaplot."}, "[3]": {"substrate": "CC(=O)C=O", "format": "biochemical, Klebsiella pneumoniae", "conditions": "other: substrate methylglyoxal 0.1-40 mM, cofactor NADH, 50 mM Imidazole (pH7), 30°C, pH 7.0", "experimental": "as §1, §2"}, "[4]": {"substrate": "CC(=O)C=O", "format": "biochemical, Hypocrea jecorina", "conditions": "other: substrate methylglyoxal 0.1-40 mM, cofactor NADPH, 10mM sodium phosphate (pH 7), 30°C", "experimental": "as §1, §2"}, "[5]": {"substrate": "CC(=O)C=O", "format": "biochemical, Dickeya zeae", "conditions": "other: substrate methylglyoxal 0.1-40 mM, cofactor NADPH, 20mM Hepes (pH7.5), 30°C, pH 7.5", "experimental": "as §1, §2"}, "[6]": {"substrate": "CC(=O)C=O", "format": "biochemical, Bacillus subtilis", "conditions": "other: substrate methylglyoxal 0.1-40 mM, cofactor NADPH, 20mM Hepes (pH7.5) 0.1mM ZnSO4, 30°C, pH 7.5", "experimental": "as §1, §2"}, "[7]": {"conditions": "cofactor NADPH, 20mM Hepes (pH7.5), 30°C"}, "[8]": {"conditions": "cofactor NADH, 20mM Hepes (pH7.5) 0.1mM FeSO4, 30°C"}}}
{"protein": "Gluconobacter oxydans Gld (putative oxidoreductase, Uniprot Q5FQJ0), SEQ ID NO: 5 (Gluconobacter oxydans 621H) (protein) MASDTIRIPGIDTPLSRVALGTWAIGGWMWGGPDDDNGVRTIHAALDEGINLIDTAPVYGFGHSEEIVGRALAEKPNKAHVATKLGLHWVGEDEKNMKVFRDSRPARIRKEVEDSLRRLRVETIDLEQIHWPDDKTPIDESARELQKLHQDGKIRALGVSNFSPEQMDIFREVAPLATIQPPLNLFERTIEKDILPYAEKHNAVVLAYGALCRGLLTGKMNRDTTFPKDDLRSNDPKFQKPNFEKYLAAMDEFEKLAEKRGKSVMAFAVRWVLDQGPVIALWGARKPGQVSGVKDVFGWSLTDEEKKAVDDILARHVPNPIDPTFMAPPARD", "values": [{"measurement": "Km", "setting": "[1]", "result": 1100, "unit": "µM"}, {"measurement": "kcat/Km", "setting": "[1]", "result": 8740, "unit": "M⁻¹ s⁻¹"}]}
{"protein": "Escherichia coli YafB (2,5-diketo-D-gluconic acid reductase B, Uniprot P30863), SEQ ID NO: 99 (Escherichia coli K-12) (protein) MAIPAFGLGTFRLKDDVVISSVITALELGYRAIDTAQIYDNEAAVGQAIAESGVPRHELYITTKIWIENLSKDKLIPSLKESLQKLRTDYVDLTLIHWPSPNDEVSVEEFMQALLEAKKQGLTREIGISNFTIPLMEKAIAAVGAENIATNQIELSPYLQNRKVVAWAKQHGIHITSYMTLAYGKALKDEVIARIAAKHNATPAQVILAWAMGEGYSVIPSSTKRKNLESNLKAQNLQLDAEDKKAIAALDCNDRLVSPEGLAPEWD", "values": [{"measurement": "Km", "setting": "[2]; [7]", "result": 8200, "unit": "µM"}, {"measurement": "kcat/Km", "setting": "[2]; [7]", "result": 2060, "unit": "M⁻¹ s⁻¹"}]}
{"protein": "Klebsiella pneumoniae BudC (Diacetyl reductase [(S)-acetoin forming], Uniprot Q48436), SEQ ID NO: 113 (Klebsiella pneumoniae) (protein) MKKVALVTGAGQGIGKAIALRLVKDGFAVAIADYNDATAKAVASEINQAGGRAMAVKVDVSDRDQVFAAVEQARKTLGGFDVIVNNAGVAPSTPIESITPEIVDKVYNINVKGVIWGIQAAVEAFKKEGHGGKIINACSQAGHVGNPELAVYSSSKFAVRGLTQTAARDLAPLGITVNGYCPGIVKTPMWAEIDRQVSEAAGKPLGYGTAEFAKRITLGRLSEPEDVAACVSYLASPDSDYMTGQSLLIDGGMVFN", "values": [{"measurement": "Km", "setting": "[3]", "result": 74800, "unit": "µM"}, {"measurement": "kcat/Km", "setting": "[3]", "result": 4200, "unit": "M⁻¹ s⁻¹"}]}
{"protein": "Hypocrea jecorina Gld2 (Glycerol 2-dehydrogenase (NADP(+)), Uniprot Q0GYU4), SEQ ID NO: 109 (Trichoderma reesei) (protein) MASKTYTLNTGAKIPAVGFGTFANEGAKGETYAAVTKALDVGYRHLDCAWFYHNEDEVGDAVRDFLARRPDVKREDLFICTKVWNHLHEPEDVKWSAKNSCENLKVDYIDLFLVHWPIAAEKNSDRSVKLGPDGKYVINQALTENPEPTWRAMEELVESGLVKAIGVSNWTIPGLKKLLQIAKIKPAVNQIEIHPFLPNEELVAFCFENGILPEAYSPLGSQNQVPSTGERVRDNPTLKAVAERSGYSLAQILLAWGLKRGYVVLPKSSTPSRIESNFNIPELSDEDFEAIQQVAKGRHTRFVNMKDTFGYNVWPEEE", "values": [{"measurement": "Km", "setting": "[4]", "result": 7700, "unit": "µM"}, {"measurement": "kcat/Km", "setting": "[4]", "result": 11100, "unit": "M⁻¹ s⁻¹"}]}
{"protein": "Dickeya zeae Adh3.2 (Group III alcohol dehydrogenase, Uniprot R4Z7U3), SEQ ID NO: 103 (Dickeya zeae) (protein) MQNFTLHTPTKILFGEGQIAALADQIPADARILITYGGGSIKKNGVFDQVINALKGRNVVEFSGIEPNPTYETLMKAVEIVRKENIDFLLAVGGGSVADGTKFIAAAVNYKAAEDPWHILQTWGAHVESAIPLGVVLTLPATGSESNSGAVITRKSTGDKQAFMNPLVCPRFAVLDPVVTYTLPERQIANGVVDAFVHTVEQYLTYPVDAKVQDRFAEGLLLTLIEEGPRALKEQHNYNVRANVMWSATMALNGLIGAGVPQDWSTHMLGHEITAMHGLDHAQTLAIVLPAMLNERRVQKREKLLQYAERVWNLRDGSDDQRIDGAIAATRAFFEQMGVPTRLSDYQLDGSSIPALVAKLEEHGMTALGENKDITLDISKRVYEAAR", "values": [{"measurement": "Km", "setting": "[5]", "result": 6700, "unit": "µM"}, {"measurement": "kcat/Km", "setting": "[5]", "result": 170, "unit": "M⁻¹ s⁻¹"}]}
{"protein": "Escherichia coli YqhD (alcohol dehydrogenase, Uniprot Q46856), wild type, SEQ ID NO: 7 (Escherichia coli K-12) (protein) MNNFNLHTPTRILFGKGAIAGLREQIPHDARVLITYGGGSVKKTGVLDQVLDALKGMDVLEFGGIEPNPAYETLMNAVKLVREQKVTFLLAVGGGSVLDGTKFIAAAANYPENIDPWHILQTGGKEIKSAIPMGCVLTLPATGSESNAGAVISRKTTGDKQAFHSAHVQPVFAVLDPVYTYTLPPRQVANGVVDAFVHTVEQYVTKPVDAKIQDRFAEGILLTLIEDGPKALKEPENYDVRANVMWAATQALNGLIGAGVPQDWATHMLGHELTAMHGLDHAQTLAIVLPALWNEKRDTKRAKLLQYAERVWNITEGSDDERIDAAIAATRNFFEQLGVPTHLSDYGLDGSSIPALLKKLEEHGMTQLGENHDITLDVSRRIYEAAR", "values": [{"measurement": "Km", "setting": "[2]; cofactor NADPH, 20mM Hepes (pH7.5) 0.1mM ZnSO4, 30°C", "result": 2090, "unit": "µM"}]}
{"protein": "Escherichia coli YdhF (Oxidoreductase YdhF, Uniprot P76187), SEQ ID NO: 105 (Escherichia coli K-12) (protein) MVQRITIAPQGPEFSRFVMGYWRLMDWNMSARQLVSFIEEHLDLGVTTVDHADIYGGYQCEAAFGEALKLAPHLRERMEIVSKCGIATTAREENVIGHYITDRDHIIKSAEQSLINLATDHLDLLLIHRPDPLMDADEVADAFKHLHQSGKVRHFGVSNFTPAQFALLQSRLPFTLATNQVEISPVHQPLLLDGTLDQLQQLRVRPMAWSCLGGGRLFNDDYFQPLRDELAVVAEELNAGSIEQVVYAWVLRLPSQPLPIIGSGKIERVRAAVEAETLKMTRQQWFRIRKAALGYDVP", "values": [{"measurement": "Km", "setting": "[2]; [7]", "result": 21800, "unit": "µM"}, {"measurement": "kcat/Km", "setting": "[2]; [7]", "result": 350, "unit": "M⁻¹ s⁻¹"}]}
{"protein": "Escherichia coli YahK (aldehyde reductase, Uniprot P75691), SEQ ID NO: 1 (Escherichia coli K-12) (protein) MKIKAVGAYSAKQPLEPMDITRREPGPNDVKIEIAYCGVCHSDLHQVRSEWAGTVYPCVPGHEIVGRVVAVGDQVEKYAPGDLVGVGCIVDSCKHCEECEDGLENYCDHMTGTYNSPTPDEPGHTLGGYSQQIVVHERYVLRIRHPQEQLAAVAPLLCAGITTYSPLRHWQAGPGKKVGVVGIGGLGHMGIKLAHAMGAHVVAFTTSEAKREAAKALGADEVVNSRNADEMAAHLKSFDFILNTVAAPHNLDDFTTLLKRDGTMTLVGAPATPHKSPEVFNLIMKRRAIAGSMIGGIPETQEMLDFCAEHGIVADIEMIRADQINEAYERMLRGDVKYRFVIDNRTLTD", "values": [{"measurement": "Km", "setting": "[2]; [7]", "result": 1410, "unit": "µM"}, {"measurement": "kcat/Km", "setting": "[2]; [7]", "result": 8300, "unit": "M⁻¹ s⁻¹"}]}
{"protein": "Bacillus subtilis YhdN (general stress protein 69, Uniprot P80874), SEQ ID NO: 3 (Bacillus subtilis subsp. subtilis str. 168) (protein) MEYTSIADTGIEASRIGLGTWAIGGTMWGGTDEKTSIETIRAALDQGITLIDTAPAYGFGQSEEIVGKAIKEYGKRDQVILATKTALDWKNNQLFRHANRARIVEEVENSLKRLQTDYIDLYQVHWPDPLVPIEETAEVMKELYDAGKIRAIGVSNFSIEQMDTFRAVAPLHTIQPPYNLFEREMEESVLPYAKDNKITTLLYGSLCRGLLTGKMTEEYTFEGDDLRNHDPKFQKPRFKEYLSAVNQLDKLAKTRYGKSVIHLAVRWILDQPGADIALWGARKPGQLEALSEITGWTLNSEDQKDINTILENTISDPVGPEFMAPPTREEI", "values": [{"measurement": "Km", "setting": "[6]", "result": 640, "unit": "µM"}, {"measurement": "kcat/Km", "setting": "[6]", "result": 5920, "unit": "M⁻¹ s⁻¹"}]}
{"protein": "Escherichia coli YiaY (Probable alcohol dehydrogenase, Uniprot P37686), SEQ ID NO: 111 (Escherichia coli K-12) (protein) MAASTFFIPSVNVIGADSLTDAMNMMADYGFTRTLIVTDNMLTKLGMAGDVQKALEERNIFSVIYDGTQPNPTTENVAAGLKLLKENNCDSVISLGGGSPHDCAKGIALVAANGGDIRDYEGVDRSAKPQLPMIAINTTAGTASEMTRFCIITDEARHIKMAIVDKHVTPLLSVNDSSLMIGMPKSLTAATGMDALTHAIEAYVSIAATPITDACALKAVTMIAENLPLAVEDGSNAKAREAMAYAQFLAGMAFNNASLGYVHAMAHQLGGFYNLPHGVCNAVLLPHVQVFNSKVAAARLRDCAAAMGVNVTGKNDAEGAEACINAIRELAKKVDIPAGLRDLNVKEEDFAVLATNALKDACGFTNPIQATHEEIVAIYRAAM", "values": [{"measurement": "Km", "setting": "[2]; [8]", "result": 2840, "unit": "µM"}, {"measurement": "kcat/Km", "setting": "[2]; [8]", "result": 340, "unit": "M⁻¹ s⁻¹"}]}
{"protein": "Escherichia coli YeaE (Uncharacterized protein YeaE, Uniprot P76234), SEQ ID NO: 107 (Escherichia coli K-12) (protein) MQQKMIQFSGDVSLPAVGQGTWYMGEDASQRKTEVAALRAGIELGLTLIDTAEMYADGGAEKVVGEALTGLREKVFLVSKVYPWNAGGQKAINACEASLRRLNTDYLDLYLLHWSGSFAFEETVAAMEKLIAQGKIRRWGVSNLDYADMQELWQLPGGNQCATNQVLYHLGSRGIEYDLLPWCQQQQMPVMAYSPLAQAGRLRNGLLKNAVVNEIAHAHNISAAQVLLAWVISHQGVMAIPKAATIAHVQQNAAVLEVELSSAELAMLDKAYPAPKGKTALDMV", "values": [{"measurement": "Km", "setting": "[2]; [7]", "result": 1590, "unit": "µM"}, {"measurement": "kcat/Km", "setting": "[2]; [7]", "result": 910, "unit": "M⁻¹ s⁻¹"}]}
